Assay results reported in patent publication US20230357395A1 (MARENGO THERAPEUTICS, published 2023).
Changes are numbered by the printed parent chain. Numbers in names are those of the source.

T1: Human NKp30, construct BKM0179 (human, UniProt O14931 19-135, limits assumed)
T1 construct: Immobilized on a CM5 chip via anti-mouse Fc antibody, so it likely carries a mouse Fc; also called Human Nkp30 (BKM0179)
T1 sequence (looked up): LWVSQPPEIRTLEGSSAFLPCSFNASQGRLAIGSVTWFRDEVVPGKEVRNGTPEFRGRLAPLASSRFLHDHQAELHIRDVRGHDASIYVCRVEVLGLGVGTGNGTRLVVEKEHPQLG

B1: BKM0138 (scFv)
scFv: EIQLLESGGGLVQPGGSLRLSCAVSGFSITTTGYHWNWVRQAPGKGLEWVGYIYSSGSTSYNPSLKSRFTISRDTSKNTFYLQMNSLRAEDTAVYYCARGDWHYFDYWGQGTMVTVSSGGGGSGGGGSGGGGSGGGGSDSVTTQSPLSLPVTLGQPASISCSGEKLSDKYVHWYQQRPGQSPRMLIYENDRRPSGVPDRFSGSNSGNDATLKISRVEAEDVGVYFCQFWDSTASAVFGGGTKVEIK
notes: also called BJM0411 VL-N95A
B2: BKM0144 (scFv)
scFv: B1 scFv with N62A, D230A
notes: also called BJM0411 VH-N60A-VL-D92A-N95A
B3: BKM0142 (scFv)
scFv: B1 scFv with N62A, A233N
notes: also called BJM0411 VH-N60A
B4: BKM0139 (scFv)
scFv: B1 scFv with D230A, A233N
notes: also called BJM0411 VL-D92A
B5: BJM1078 (BJM0407 Parental) (antibody, V domains shown)
VH: EIQLLESGGGLVQPGGSLRLSCAVSGFSITTTGYHWNWVRQAPGKGLEWVGYIYSSGSTSYNPSLKSRFTISRDTSKNTFYLQMNSLRAEDTAVYYCARGDWHYFDYWGQGTMVTVSS
VL: SSETTQPPSVSVSPGQTASITCSGEKLSDKYVHWYQQKPGQSPVMVIYENDRRPSGIPERFSGSNSGNTATLTISGTQAMDEADYFCQFWDSTNSAVFGGGTQLTVL
B6: BJM1079 (BJM0411 Parental) (antibody, V domains shown)
VH: B5 VH
VL: DSVTTQSPLSLPVTLGQPASISCSGEKLSDKYVHWYQQRPGQSPRMLIYENDRRPSGVPDRFSGSNSGNDATLKISRVEAEDVGVYFCQFWDSTNSAVFGGGTKVEIK
B7: BKM0140 (scFv)
scFv: EIQLLESGGGLVQPGGSLRLSCAVSGFSITTTGYHWNWVRQAPGKGLEWVGYIYSSGSTSYNPSLKSRFTISRDTSKNTFYLQMNSLRAEDTAVYYCARGDWHYFDYWGQGTMVTVSSGGGGSGGGGSGGGGSGGGGSSSETTQPPSVSVSPGQTASITCSGEKLSDKYVHWYQQKPGQSPVMVIYENDRRPSGIPERFSGSNSGNTATLTISGTQAMDEADYFCQFWASTNSAVFGGGTQLTVL
notes: also called BJM0407 VL-D92A
B8: BKM0143 (scFv)
scFv: B7 scFv with N62A, A229D
notes: also called BJM0407 VH-N60A
B9: BKM0145 (scFv)
scFv: B7 scFv with N62A, N232A
notes: also called BJM0407 VH-N60A-VL-D92A-N95A
B10: BKM0141 (scFv)
scFv: B7 scFv with A229D, N232A
notes: also called BJM0407 VL-N95A
B11: BJM0578 (bivalent) (antibody, V domains shown)
VH: QVQLVQSGAEVKKPGSSVKVSCKASGYTFTGYVMHWVRQAPGQGLEWMGFIIPIFGTANYAQKFQGRVTITSDKSTTTAYMELSSLRSEDTAVYYCARGAGYNFDGAYRFFDFWGQGTLVTVSS
VL: DVVMTQSPLSLPVTLGQPASISCRSSQRLVHSNGNTYLHWYQQRPGQSPRLLIYRVSNRFPGVPDRFSGSGSGTDFTLKISRVEAEDVGVYFCSQSTHVPYTFGGGTKVEIK
notes: Bivalent construct with a human Fc
B12: BKM0194 (single arm) (antibody, V domains shown)
VH: B11 VH
VL: B11 VL with N33G
notes: Single arm anti-TRBC1 construct with human Fc; also called N28G
B13: BKM0191 (single arm) (antibody, V domains shown)
VH: B11 VH
VL: B11 VL with G34A
notes: Single arm anti-TRBC1 construct with human Fc; also called G29A
B14: BKM0193 (single arm) (antibody, V domains shown)
VH: B11 VH
VL: B11 VL with G34A, T36A
notes: Single arm anti-TRBC1 construct with human Fc; also called G29A T31A
B15: BKM0196 (single arm) (antibody, V domains shown)
VH: B11 VH
VL: B11 VL with N33G, N35S
notes: Single arm anti-TRBC1 construct with human Fc; also called N28G N30S
B16: BIM0460 (bivalent) (antibody, V domains shown)
VH: QVQLVQSGAEVKKPGSSVKVSCKASGYTFTGYVMHWVRQAPGQGLEWMGFINPYNDDIQSNERFRGRVTITSDKSTTTAYMELSSLRSEDTAVYYCARGAGYNFDGAYRFFDFWGQGTLVTVSS
VL: B11 VL
notes: Bivalent construct with a human Fc (captured via anti-human Fc antibody)
B17: BKM0195 (single arm) (antibody, V domains shown)
VH: B11 VH
VL: B11 VL with N35S
notes: Single arm anti-TRBC1 construct with human Fc; also called N30S
B18: BKM0192 (single arm) (antibody, V domains shown)
VH: B11 VH
VL: B11 VL with T36A
notes: Single arm anti-TRBC1 construct with human Fc; also called T31A
B19: BKM0313 (TRBC2/NKp30 bispecific) (bispecific antibody, human IgG1, kappa, N297A)
heavy: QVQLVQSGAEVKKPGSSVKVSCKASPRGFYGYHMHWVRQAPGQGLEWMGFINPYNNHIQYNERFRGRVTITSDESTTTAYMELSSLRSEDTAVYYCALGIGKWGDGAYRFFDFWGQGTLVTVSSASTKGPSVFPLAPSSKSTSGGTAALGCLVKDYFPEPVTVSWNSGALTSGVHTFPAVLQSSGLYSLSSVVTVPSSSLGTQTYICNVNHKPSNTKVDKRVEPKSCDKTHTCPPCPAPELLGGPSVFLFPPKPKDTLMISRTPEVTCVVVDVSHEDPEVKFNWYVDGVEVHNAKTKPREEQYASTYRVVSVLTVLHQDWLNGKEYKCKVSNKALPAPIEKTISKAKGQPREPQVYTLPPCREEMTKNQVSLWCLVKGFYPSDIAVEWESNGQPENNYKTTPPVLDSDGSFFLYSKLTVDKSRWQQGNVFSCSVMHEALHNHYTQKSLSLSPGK
light: DVVMTQSPLSLPVTLGQPASISCRSSKNLVHSNGRTYLQWYQQRPGQSPRLLIYRVSNRFPGVPDRFSGSGSGTDFTLKISRVEAEDVGVYFCSQSTREPYTFGGGTKVEIKRTVAAPSVFIFPPSDEQLKSGTASVVCLLNNFYPREAKVQWKVDNALQSGNSQESVTEQDSKDSTYSLSSTLTLSKADYEKHKVYACEVTHQGLSSPVTKSFNRGEC
scFv: EIQLLESGGGLVQPGGSLRLSCAVSGFSITTTGYHWNWVRQAPGKGLEWVGYIYSSGSTSYNPSLKSRFTISRDTSKNTFYLQMNSLRAEDTAVYYCARGDWHYFDYWGQGTMVTVSSGGGGSGGGGSGGGGSGGGGSDSVTTQSPLSLPVTLGQPASISCSGEKLSDKYVHWYQQRPGQSPRMLIYENDRRPSGVPDRFSGSNSGNDATLKISRVEAEDVGVYFCQFWDSTNSAVFGGGTKVEIKDKTHTCPPCPAPELLGGPSVFLFPPKPKDTLMISRTPEVTCVVVDVSHEDPEVKFNWYVDGVEVHNAKTKPREEQYASTYRVVSVLTVLHQDWLNGKEYKCKVSNKALPAPIEKTISKAKGQPREPQVCTLPPSREEMTKNQVSLSCAVKGFYPSDIAVEWESNGQPENNYKTTPPVLDSDGSFFLVSKLTVDKSRWQQGNVFSCSVMHEALHNHYTQKSLSLSPGK
notes: Knob chain TRBC2 Fab-Fc and hole chain NKp30 scFv-Fc; also called Anti-TRBC2-NKp30-BIS-9
B20: BKM0314 (TRBC2/NKp30 bispecific) (bispecific antibody, human IgG1, kappa, N297A)
heavy: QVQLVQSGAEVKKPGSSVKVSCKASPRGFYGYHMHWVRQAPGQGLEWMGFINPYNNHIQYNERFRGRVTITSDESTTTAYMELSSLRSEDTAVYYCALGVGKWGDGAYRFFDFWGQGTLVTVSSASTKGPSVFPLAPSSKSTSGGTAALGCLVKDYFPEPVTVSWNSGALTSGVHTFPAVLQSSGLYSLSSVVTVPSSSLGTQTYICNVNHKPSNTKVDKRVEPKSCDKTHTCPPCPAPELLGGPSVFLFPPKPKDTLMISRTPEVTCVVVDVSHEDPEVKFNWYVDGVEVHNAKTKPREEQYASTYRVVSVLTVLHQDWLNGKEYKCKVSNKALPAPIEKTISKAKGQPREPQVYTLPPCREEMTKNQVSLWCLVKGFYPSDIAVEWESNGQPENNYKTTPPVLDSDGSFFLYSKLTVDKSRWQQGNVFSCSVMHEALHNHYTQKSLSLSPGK
light: B19 light
scFv: B19 scFv
notes: Knob chain TRBC2 Fab-Fc and hole chain NKp30 scFv-Fc; also called Anti-TRBC2-NKp30-BIS-10

Target: T1, Human NKp30, construct BKM0179
Experiment: SPR (BIAcore T200), human NKp30 BKM0179 captured via anti-mouse Fc on CM5, antibody injected 3.9-125 nM, 1:1 fit
Description: (§1) In this example, a series of exemplary anti-NKp30 antibody molecules were analyzed for their binding affinity for NKp30. Briefly, surface plasmon resonance (SPR) measurements were performed by using the BIAcore T200. Human NKp30 (BKM0179) was immobilized on a CM5 chip via anti-mouse Fc antibody to a response of 50 RU. […] The data was fit using a 1:1 binding model.

Kd [nM]	Binder
3.2	B1
6.4	B2
1.28	B3
3.2	B4
1.48	B5
1.26	B6
3.3	B7
1.45	B8
4.2	B9
3	B10

Target: T2, human TRBC2 (hTRBC2), construct BIM0445 (human, UniProt A0A5B9 1-129, limits assumed)
T2 construct: also called BIM0445 (hTRBC2)
T2 sequence (A0A5B9 1-129 limits assumed): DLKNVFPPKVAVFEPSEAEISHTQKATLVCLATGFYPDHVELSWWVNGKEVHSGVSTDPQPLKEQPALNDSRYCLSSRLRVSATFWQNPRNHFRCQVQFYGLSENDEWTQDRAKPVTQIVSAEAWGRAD
Experiment: SPR (BIAcore T200), antibody captured via anti-human Fc

binding result	Binder
no binding	B11
no binding	B12
no binding	B13
no binding	B14
no binding	B15
no binding	B16
no binding	B17
no binding	B18

Target: T3, human TRBC1 (hTRBC1), construct BIM0443 (human, UniProt P01850 1-129, limits assumed)
T3 construct: also called Human TRBC1 (BIM0443); BIM0443 (hTRBC1)
T3 sequence (P01850 1-129 limits assumed): as the sequence (A0A5B9 1-129 limits assumed) above, with K3N, N4K, K9E, Y36F counted along it
Experiment: SPR (BIAcore T200), antibody captured via anti-human Fc on CM5, hTRBC1 BIM0443 injected 15.6-500 nM, 1:1 fit
Description: as §1, with “anti-TRBC1” for “anti-NKp30”, “TRBC1.” for “NKp30.”, “Each of the exemplary anti-TRBC1 antibody constructs” for “Human NKp30 (BKM0179)”, “anti-human” for “anti-mouse”

Kd [nM]	Binder
75	B11
180	B12
75	B13
360	B14
690	B15
10	B16
317	B17
138	B18

Target: T4, human TRBC2 (construct not named) (human, UniProt A0A5B9 1-129, limits assumed)
T4 construct: also called hTRBC2
T4 sequence (A0A5B9 1-129 limits assumed): as the sequence (A0A5B9 1-129 limits assumed) above
Experiment: SPR, bispecific captured via anti-human Fc on CM5, hTRBC2 from 125 nM in two-fold dilutions, 1:1 fit
Description: In this example, surface plasmon resonance assay was performed to check binding of anti-TRBC2xNKp30 bispecific antibodies (bispecifics) to either hTRBC2, hTRBC1 or hNKp30 proteins. […] The bispecific antibodies may or may not have an N297A mutation in their Fc regions. FIG. 31B represents a design for monovalent TRBC2 control. Briefly, TRBC2xNKp30 bispecifics at 2 ug/mL were immobilized on CM5 chip via anti-human Fc antibody to 70 RU. Human TRBC2 or human TRBC1 antigens were diluted to 125 nM and then serially diluted two-fold. Association was 300 seconds and dissociation were 600 seconds. This assay was run in 1 x HBS-EP+ Buffer pH 7.4 and 25 C. The data was fit using a 1:1 binding model assess binding of bispecifics to NKp30, human NKp30 at 2 ug/mL was immobilized on CM5 chip via Anti-mouse Fc antibody to 70 RU. TRBC2xNKp30 bispecifics were diluted to 50 nM and then serially diluted two-fold. Association was 300 seconds and dissociation were 600 seconds. This assay was run in 1 x HBS-EP+ Buffer pH 7.4 and 25 C. The data was fit using a 1:1 binding model.

Kd [nM]	Binder
148	B19
92	B20
